# Assay results reported in article PMC10060354, “Discovery of a small molecule ligand of FRS2 that inhibits invasion and tumor growth” (Cellular Oncology, 2022).
# Ends that are not written are not given here.
# How the values were obtained:
# [1] = target: T1, FRS2_PTB (Homo sapiens, UniProt Q8WU20); assay: nano differential scanning fluorimetry (nanoDSF); format: binding; conditions: 500 μM ligand
# T1 construct: FRS2-PTB 11-140aa; 6xHis; made in house; host or cells: E. coli BL21 (DE3)
# T1 sequence (Q8WU20 11-140): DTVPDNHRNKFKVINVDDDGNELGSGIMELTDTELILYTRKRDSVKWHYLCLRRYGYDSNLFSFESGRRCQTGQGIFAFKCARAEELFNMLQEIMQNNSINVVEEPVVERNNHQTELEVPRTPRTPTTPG
# Procedure: (§1) Assay establishment and pilot nanoDSF experiments were performed with a Tycho® system. Each experiment was performed by mixing the protein and ligand of interest at a 1:1 ratio and subsequent incubation for 15–30 min at room temperature. Controls of protein alone and ligand alone in identical buffer compositions as for the complex were measured accordingly. The temperature gradient ranged from 35 to 95 °C, and the heating rate was 30 °C/min. Inflection temperatures TI were calculated from the first derivative of the spectra obtained at the ratio of the signals at 350 nm to those at 330 nm. ΔTI of a complex was calculated as following: ΔTI,complex = TI,complex – TI,protein.
# The in-built software version 1.1.5.668 (NanoTemper Technologies, Munich, Germany) and Microsoft Office Excel 365 (Microsoft Corp., Seattle, USA) was used for data analysis. Data was plotted with GraphPad Prism vers. 8.3.0 (GraphPad Software, San Diego, USA).
# Purified FRS2_PTB or GB1_FRS2_PTB protein tagged with 6 × Histidine residues and the B1 immunoglobulin binding domain of the streptococcal protein G (GB1) were diluted in the protein buffer (100 mM sodium phosphate, 50 mM NaCl, 0.5 mM EDTA, 50 mM arginine, 1 mM TCEP, pH 7.0) to 30 μM, GB-1 to 40 μM. FGFR_PEP, compounds or paracetamol (PARA) as negative control were dissolved at 1 mM in the protein buffer supplemented with 10% DMSO. Compound and protein were mixed at 1:1 volume ratio yielding a final concentration of 15 μM and 20 μM for FRS2_PTB/GB1_FRS2_PTB and GB1, respectively, as well as 500 μM for FGFR_PEP or compounds. The mixture was incubated for 15 min. Each compound was measured in triplicates. Protein controls were measured in six replicates in the beginning. The quality of the screen was assessed by the Z-factor. nanoDSF validation studies were performed on a Prometheus® system in high sensitivity capillaries. Samples were heated with 1 °C/min from 20 to 95 °C. Each compound was measured in triplicates. GB1-FRS2_PTB and GB1 were diluted in the protein buffer (100 mM sodium phosphate, 50 mM NaCl, 0.5 mM EDTA, 50 mM arginine, 1 mM TCEP, pH 7.0) to 30 μM. Compounds 3.3, 3.4, 3.18 as well as the 3.18 analogues were dissolved in 100% DMSO at 50 or 100 mM and further diluted to 1 mM with a final DMSO-concentration of 100%. FGFR_PEP was dissolved at 1 mM in the protein buffer supplemented with 10% DMSO. Compound and protein were mixed at 1:1 volume ratio yielding final concentrations of 15 μM protein and 500 μM for the compounds. FGFR_PEP was measured against both GB1-FRS2_PTB and GB1, all other compounds only against GB1-FRS2_PTB. The mixture was incubated for 15 min before measurement. The data was analyzed for both the ratio of signals at 330 and 350 nm and at 350 nm alone. […]
# [2] = target: T2, GB1-FRS2-PTB (Homo sapiens, UniProt Q8WU20); assay: nanoDSF with GB1-fused PTB domain; format: binding
# T2 construct: FRS2-PTB 11-140aa; 6xHis (N); made in house; host or cells: E. coli BL21 (DE3)
# T2 sequence (Q8WU20 11-140): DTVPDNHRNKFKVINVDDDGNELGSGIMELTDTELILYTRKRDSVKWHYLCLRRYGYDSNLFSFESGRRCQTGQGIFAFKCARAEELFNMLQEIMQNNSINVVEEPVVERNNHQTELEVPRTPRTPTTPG
# Procedure: as §1, with “TI,protein. […]” for “TI,protein.”
# Purified FRS2_PTB or GB1_FRS2_PTB protein tagged with 6 × Histidine residues and the B1 immunoglobulin binding domain of the streptococcal protein G (GB1) were diluted in the protein buffer (100 mM sodium phosphate, 50 mM NaCl, 0.5 mM EDTA, 50 mM arginine, 1 mM TCEP, pH 7.0) to 30 μM, GB-1 to 40 μM. […] Each compound was measured in triplicates. Protein controls were measured in six replicates in the beginning. The quality of the screen was assessed by the Z-factor. nanoDSF validation studies were performed on a Prometheus® system in high sensitivity capillaries. […] Each compound was measured in triplicates. […] FGFR_PEP was measured against both GB1-FRS2_PTB and GB1, all other compounds only against GB1-FRS2_PTB. […]
# [3] = target: T3, FRS2_PTB (PTB domain of human FRS2) (human, UniProt Q8WU20 15-135); assay: nanoDSF (thermal shift); 15 uM protein mixed with 500 uM FGFR_PEP, incubated 15 min; 100 mM sodium phosphate, 50 mM NaCl, 0.5 mM EDTA, 50 mM arginine, 1 mM TCEP, pH 7.0, with DMSO; shift of the inflection or melting temperature against protein alone; conditions: both partners purified
# T3 construct: Fibroblast growth factor receptor substrate 2 (FRS2), human, PTB domain, residues 15 to 135 as the methods state for the PTB domain constructs; The limits 15-135 are stated in the methods sentence that describes the GB1 fusions; also called FRS2-PTB domain; PTB domain of FRS2; source: E. coli BL21 (DE3), purified (Ni-NTA)
# T3 sequence (looked up): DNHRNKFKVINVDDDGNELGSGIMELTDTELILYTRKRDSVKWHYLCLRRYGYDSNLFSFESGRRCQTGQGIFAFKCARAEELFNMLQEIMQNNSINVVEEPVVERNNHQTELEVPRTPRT
# [4] = target: T4, GB1-FRS2_PTB (human, UniProt Q8WU20 15-135, 2nd Generation BLUE-NHS dye (in the MST only)); assay: as above; conditions: both partners purified
# T4 construct: Fibroblast growth factor receptor substrate 2 (FRS2), human, PTB domain, residues 15 to 135; Vector pEM3BT2; also called GB1-fused PTB domain; source: E. coli BL21 (DE3), purified (Ni-NTA); not shown: His6, N-terminal, kept
# T4 sequence (looked up): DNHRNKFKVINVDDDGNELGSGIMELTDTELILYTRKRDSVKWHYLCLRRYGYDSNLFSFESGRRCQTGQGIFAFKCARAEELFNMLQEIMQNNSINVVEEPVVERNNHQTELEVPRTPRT
# [5] = target: T4, GB1-FRS2_PTB; assay: MST; GB1-FRS2_PTB labelled with BLUE-NHS dye at 25 nM; FGFR_PEP in 1:1 serial dilution from 1 mM to 61.04 nM; 25 C; 100 mM sodium phosphate, 50 mM NaCl, 0.5 mM EDTA, 50 mM arginine, 1 mM TCEP, pH 7.0, with and without DMSO; MST trace analysis; conditions: both partners purified
Molecule,nanoDSF shift of the inflection point of the melting curve (ΔTm) [1] [°C],nanoDSF shift in the melting temperature [2] [°C],shift of the inflection point of the melting curve (nanoDSF) [3] [°C],shift in the melting temperature (nanoDSF) [4] [°C],Kd [5] [µM]
"HSQMAVHKLAKSIPLRRQVTVS [FGFR peptide, reference compound]",19 ± 0.1,10.5 ± 0.1,–,–,–
HSQMAVHKLAKSIPLRRQVTVS (also called FGFR1 peptide) [FGFR peptide (FGFR_PEP)],–,–,19 ± 0.1,10.5 ± 0.1,1 ± 0.2
